This note sets out measurements from PMC9403797, “Back From the Dead: The Atypical Kinase Activity of a Pseudokinase Regulator of Cation Fluxes During Inducible Immunity” (Frontiers in Plant Science, 2022).

This experiment addresses T1, MPK19 (Arabidopsis, UniProt Q9LUC3 1-598).
T1 construct: MPK19, MAPK family kinase, Arabidopsis; fusion protein spotted on the functional protein microarray; source: printed on protein microarrays (AtPMA-5000 and AtPMA-10000)
T1 sequence (looked up): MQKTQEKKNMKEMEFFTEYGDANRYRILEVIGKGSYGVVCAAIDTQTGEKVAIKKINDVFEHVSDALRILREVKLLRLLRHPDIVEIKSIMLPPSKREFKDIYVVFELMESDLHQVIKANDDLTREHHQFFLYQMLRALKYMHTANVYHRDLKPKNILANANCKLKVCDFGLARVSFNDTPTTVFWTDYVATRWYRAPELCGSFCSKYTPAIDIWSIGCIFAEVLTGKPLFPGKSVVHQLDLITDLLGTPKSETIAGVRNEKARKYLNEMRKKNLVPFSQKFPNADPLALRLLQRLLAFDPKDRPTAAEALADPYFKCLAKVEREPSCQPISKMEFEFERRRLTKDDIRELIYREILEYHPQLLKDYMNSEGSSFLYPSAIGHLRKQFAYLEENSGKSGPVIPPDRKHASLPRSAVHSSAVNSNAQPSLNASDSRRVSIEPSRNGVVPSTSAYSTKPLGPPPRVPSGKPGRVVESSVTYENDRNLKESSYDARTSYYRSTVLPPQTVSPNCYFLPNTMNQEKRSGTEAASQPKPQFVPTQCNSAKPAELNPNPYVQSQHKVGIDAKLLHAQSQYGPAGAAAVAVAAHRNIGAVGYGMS
The experiment can be described thus: peptide or protein array; functional protein microarrays (AtPMA-5000 and AtPMA-10000, about 15,000 Arabidopsis proteins) probed with 150 ul purified ILK1-V5 in solution for 1.5 h with 1% BSA, 5 mM MgCl2 and MnCl2; detected with Cy5-conjugated anti-V5 antibody; three probe arrays against two control arrays without probe; one-sided t-test, 5% significance, FDR. As to conditions: both partners purified.

B1: ILK1-V5 (integrin-linked kinase 1, Arabidopsis) (enzyme, UniProt F4IS56 1-479, looked up)
chain: MENITAQLKRGISRQFSTGSIRRTLSRQFTRQSSLDPRRTNMRFSFGRQSSLDPIRRSPDSSKSDDEPHMSVPENLDSTMQLLFMASKGDVRGIEELLDEGIDVNSIDLDGRTALHIAACEGHLGVVKALLSRRANIDARDRWGSTAAADAKYYGNLDVYNLLKARGAKVPKTRKTPMTVSNPREVPEYELNPLEVQVRKSDGISKGAYQVAKWNGTRVSVKILDKDSYSDPERINAFRHELTLLEKVRHPNVIQFVGAVTQNIPMMIVVEYNPKGDLSVYLQKKGRLSPSKALRFALDIARGMNYLHECKPDPIIHCDLKPKNILLDRGGQLKISGFGMIRLSKISQDKAKVANHKAHIDLSNYYIAPEVYKDEIFDLRVDAHSFGVILYEITEGVPVFHPRPPEEVARMMCLEGKRPVFKTKSRSYPPDIKELIEKCWHPEAGIRPTFSEIIIRLDKIVANCSKQGWWKDTFKFPWK
notes: ILK1, integrin-linked kinase 1, a pseudokinase of the Raf-like MAP3K family, Arabidopsis; also called purified ILK1-V5 protein; source: purified as described previously (Brauer et al., 2014, 2016); purity validated by mass spectrometry
In the case of B1, the binding result is listed as “binds”.
